We go through 1 molecule from patent publication US20220288204A1, “DOSAGE AND ADMINISTRATION OF ANTI-ERBB3 (HER3) MONOCLONAL ANTIBODIES TO TREAT TUMORS ASSOCIATED WITH NEUREGULIN 1 (NRG1) GENE FUSIONS” (ELEVATION ONCOLOGY, INC., priority 2021, published 2022).

For one data set, the system named is HCC-95 cells. Briefly: Time-course growth by cell counting. Format: cell-based, human. Particulars: lowest antibody concentration. The protocol:
(§1) Expression of […] (FIG. 1A) or SLC3A2-NRG1 (FIG. 2B) fusions in MDA-MB-175-VII and LUAD-0061AS3 cells, respectively, was determined by RT-PCR. The HBECp53 (NRG1 fusion negative) and HBECp53-SLC3A2-NRG1 cells were used as negative and positive controls, respectively. […] Viability results represent the mean±SEM of 2-5 independent experiments in which each condition was assayed in triplicate determinations. Viability data were analyzed by nonlinear regression and the IC50 values for growth inhibition and the 95% confidence interval were determined with GraphPad Prism 8. […] Results represent the mean±SD for one experiment in which each condition was assayed in duplicate.
(§2) For the time-course experiments, cells were plated at a density of 5,000 (HCC-95) or 10,000 (all others) cells per well in 12-well tissue culture plates, and then treated 24 hours later (time 0) with the respective agents. […] Cells were trypsinized and counted at the relevant time-point shown on the graphs. For dose-response studies, cells were plated at a density of 7,500-10,000 cells in white clear-bottom 96-well plates in a volume of […] complete growth media and […] chemicals added at 10× concentration (to achieve 1× concentration) in a final volume of […]. After 96-hour incubation, […] AlamarBlue cell viability reagent was added to achieve a final concentration of 10%. AlamarBlue is a cell permeable […] dye that is reduced when it enters the mitochondria and emits fluorescence at a different wavelength (Gloeckner H, J. Immunol. Methods 2001; 252:131-8). Fluorescence was measured (excitation, 530 nm and emission, 585 nm) using a […] Spectramax M2 Fluorescence Plate Reader, as described previously (Somwar R, J. Biomol. Screen 2009; 14:1176-84). In each experiment, background fluorescence was determined in cells treated with […] of the 20S proteasome inhibitor, carfilzomib, which is toxic to most cells at high concentrations, and was subtracted from all values. There were 3-4 replicates of each condition. Relative IC50 values and 95% confidence interval values were determined by nonlinear regression analysis using GraphPad Prism 8 software using either a variable slope model or in cases where inhibition was only partial, a three-parameter fit was used. […] Each condition was assayed in triplicate in 2-5 independent experiments.
(§3) In these experiments, the MDA-MB-175 and LUAD-0061AS3 cell lines, isogenic HBECp53 cells ectopically expressing a CD74-NRG1 fusion, and the NRG1-amplified lung cancer cell line, HCC-95 (FIGS. 1E-H) were used. […] Afatinib sensitivity of HCC-95 cells was not examined in this study.

A further data set relates to MDA-MB-175-VII cells. Briefly: Time-course growth by cell counting. Format: cell-based, human. The protocol: as §1, §2, §3
For another data set, the system named is HBECp53-CD74-NRG1 cells. Briefly: Time-course growth by cell counting. The format is cell-based, human. Particulars: highest concentration of seribantumab. The protocol:
as §1, §2, §3

The conditions of data set [1]: in vivo.
Excerpt: Patients are monitored during weekly dosing for a period of 28 days (i.e., throughout C1W1, C1W2, C1W3, and C1W4) for the occurrence of DLTs. […] The grading of AEs is based on the “common terminology criteria for adverse events” (CTCAE) version 5.0. Hematologic toxicity includes febrile neutropenia, neutropenic infection, grade 4 neutropenia >7 days, grade ≥3 thrombocytopenia for >7 days, grade ≥3 thrombocytopenia with clinically significant bleeding, grade 4 thrombocytopenia, and grade ≥3 anemia >7 days.
In the current study, 6 patients were treated in a safety run-in phase with an induction regimen consisting of a 3,000 mg loading dose followed by 2,000 mg weekly for 3 weeks. […] Enrollment continued under Induction Regimen 2 consisting of 3,000 mg once weekly for 4 weeks. The next 6 patients enrolled were treated with Induction Regimen 2.
Upon review, the next 6 patients enrolled and initiated treatment with Induction Regimen 2.
Upon review, all subsequently enrolled patients treated under Protocol Version 2.0 initiated treatment with Induction Regimen 2.
Data set [2] has as its system xenograft tumors generated from OVCAR8 cells. Particulars: Sheng Q, et al., Cancer Cell 2010; cited from earlier work.
The next data set relates to OV-10-0050 PDX tumors. Briefly: HGSOC ovarian PDX model efficacy (CLU-NRG1). Format: in vivo, mice. Further details: average tumor volume at the time of the last treatment: unit not given beside the values. The conditions noted are these: for average tumor volume at the time of the last treatment: day 27. The text has this: IHC characterization of the OV-10-0050 PDX model (FIG. 6A). H&E staining, WT1, and TP53 IHC (left to right). […] (FIG. 6B). Treatment was terminated on day 27 and animals were monitored for tumor regrowth until tumors reached maximum allowable size or until 90 days after treatment initiation. Results represent the mean tumor volume ±SEM. A zoom-in view on tumor volumes during the last 40 days of monitoring of seribantumab-treated groups (right). […] Change in the volume of individual tumors (day 27 vs. volume at start of treatment) (FIG. 6C).
Crushed PDX tumor samples were mixed with Matrigel (50%) and injected into the subcutaneous flank of 6-week-old female NSG (LUAD-0061AS3) or Balb/c nude (OV-10-0050) mice. When tumors reached approximately 100-150 mm3, mice were randomly assigned to groups of 5-8 and treatment was commenced. There were 2 mice per group with bilateral flank tumors for the protein phosphorylation/expression study in the LUAD-0061AS3 PDX model. Drugs were administered once, and then tumors were collected at 2, 24, and 168 hours posttreatment. Afatinib was administered by oral gavage once daily as a suspension (in 0.5% methylcellulose-0.4% Tween-80) on a 5-days-on and 2-days-off schedule. […] Mice were observed daily throughout the treatment period for signs of morbidity and mortality. Tumor length and width and animal weights were measured twice weekly. Tumor volume was calculated using the empirical formula V=length×width 2×0.52. The percentage change in tumor volume of each tumor was calculated using the formula [(V2−V1)/V1)]×100, where V1 is the starting tumor volume and V2 is the final tumor volume.
RT-PCR confirmed the presence of the CLU-NRG1 fusion. Xenograft tissue morphology and IHC markers (positive for WT1 and strong nuclear staining for TP53) were consistent with HGSOC histology (FIG. 6A; Kobel M, et al., Int. J. Gynecol. Pathol. 2016; 35:430-41). […] As with the above experiments in the NSCLC PDX model, the doses of seribantumab used here were lower than the dose that is used in patients. Treatment was terminated at day 27 and tumor growth was monitored for an additional 63 days (90 days after initiation of treatment or once tumors reached the maximum allowable size). The tumor volume as a function of time is illustrated in FIG. 6B, and the AUC was computed for each group to compare tumor volumes between groups at the last date of treatment. […] Forty-one days after treatment began, mice bearing vehicle- and afatinib-treated tumors were sacrificed because of the high tumor burden.

B1: seribantumab: anti-ERBB3 (HER3) fully human monoclonal antibody; heavy and light chains SEQ ID NOs: 12 and 13 (antibody)
heavy: EVQLLESGGGLVQPGGSLRLSCAASGFTFSHYVMAWVRQAPGKGLEWVSSISSSGGWTLYADSVKGRFTISRDNSKNTLYLQMNSLRAEDTAVYYCTRGLKMATIFDYWGQGTLVTVSSASTKGPSVFPLAPCSRSTSESTAALGCLVKDYFPEPVTVSWNSGALTSGVHTFPAVLQSSGLYSLSSVVTVPSSNFGTQTYTCNVDHKPSNTKVDKTVERKCCVECPPCPAPPVAGPSVFLFPPKPKDTLMISRTPEVTCVVVDVSHEDPEVQFNWYVDGVEVHNAKTKPREEQFNSTFRVVSVLTVVHQDWLNGKEYKCKVSNKGLPAPIEKTISKTKGQPREPQVYTLPPSREEMTKNQVSLTCLVKGFYPSDIAVEWESNGQPENNYKTTPPMLDSDGSFFLYSKLTVDKSRWQQGNVFSCSVMHEALHNHYTQKSLSLSPGK
light: QSALTQPASVSGSPGQSITISCTGTSSDVGSYNVVSWYQQHPGKAPKLIIYEVSQRPSGVSNRFSGSKSGNTASLTISGLQTEDEADYYCCSYAGSSIFVIFGGGTKVTVLGQPKAAPSVTLFPPSSEELQANKATLVCLVSDFYPGAVTVAWKADGSPVKVGVETTKPSKQSNNKYAASSYLSLTPEQWKSHRSYSCRVTHEGSTVEKTVAPAECS
Consider B1, for which the “cell growth over time” value in the data set on HCC-95 cells was “growth completely inhibited”; in the data set on MDA-MB-175-VII cells (seribantumab 1 and 10 μmol/L, 12 days), “growth was blocked for the entire 12-day period”; with HBECp53-CD74-NRG1 cells, “almost complete inhibition of growth”. The “time at which growth was slowed after start of treatment” value in the data set with MDA-MB-175-VII cells (seribantumab 0.1, 1, 10 μmol/L) was 24 h. Moreover, in data set [1], the TEAEs entry is “Grade 1 diarrhea, nausea, fatigue, rash and pruritis”. The “growth of xenograft tumors” value in data set [2] is recorded as “block growth of xenograft tumors”. Moreover, the “average tumor volume at the time of the last treatment” value with OV-10-0050 PDX tumors (1 mg seribantumab twice weekly) is listed as 1.3±0.3; in the data set on OV-10-0050 PDX tumors (2.5 mg seribantumab twice weekly), 1.9±0.6; in the data set on OV-10-0050 PDX tumors (5 mg seribantumab twice weekly), 17.9±14.5; in the data set on OV-10-0050 PDX tumors (10 mg seribantumab twice weekly) it was 2.1±0.6. For the same molecule, in the data set with OV-10-0050 PDX tumors (1, 2.5 and 5 mg seribantumab groups, treatment terminated day 27), the “day on which tumors started to regrow” value was at most 73 days. In the data set on OV-10-0050 PDX tumors (dosage lower than that used in human trials), this molecule registered a tumor regression of 100%. The “tumor regrowth after cessation of treatment” value with OV-10-0050 PDX tumors (highest dose of seribantumab) is “blocked tumor regrowth after cessation of treatment”. The tumor growth entry in the data set on OV-10-0050 PDX tumors (seribantumab 1, 2.5, 5, 10 mg twice weekly) is on record as “significant tumor shrinkage at all doses tested”. Besides, in the data set with OV-10-0050 PDX tumors (seribantumab, monitoring after cessation), the “tumor growth after treatment was stopped” value is “largely repressed for 63 days”. Further, the “tumors that started to regrow at the end of the study” value in the data set with OV-10-0050 PDX tumors (two highest dose groups of seribantumab) is recorded as “one of eight”.
